Measured values as given in article PMC1976250 (Journal of neurochemistry, 2007).

T1: GST-GluR2 C-terminus (GST-R2C) (UniProt P19491 834-883)
T1 chain (looked up): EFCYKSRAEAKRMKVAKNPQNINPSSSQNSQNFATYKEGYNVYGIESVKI


Legend:
[1] = molecular target: GST-PICK1 (protein interacting with C-kinase 1) (UniProt Q9EP80 1-416); assay: pull-down
[2] = molecular target: T1, GST-GluR2 C-terminus (GST-R2C); assay: pull-down

Sequence of GST-PICK1 (protein interacting with C-kinase 1) (Q9EP80 whole entry): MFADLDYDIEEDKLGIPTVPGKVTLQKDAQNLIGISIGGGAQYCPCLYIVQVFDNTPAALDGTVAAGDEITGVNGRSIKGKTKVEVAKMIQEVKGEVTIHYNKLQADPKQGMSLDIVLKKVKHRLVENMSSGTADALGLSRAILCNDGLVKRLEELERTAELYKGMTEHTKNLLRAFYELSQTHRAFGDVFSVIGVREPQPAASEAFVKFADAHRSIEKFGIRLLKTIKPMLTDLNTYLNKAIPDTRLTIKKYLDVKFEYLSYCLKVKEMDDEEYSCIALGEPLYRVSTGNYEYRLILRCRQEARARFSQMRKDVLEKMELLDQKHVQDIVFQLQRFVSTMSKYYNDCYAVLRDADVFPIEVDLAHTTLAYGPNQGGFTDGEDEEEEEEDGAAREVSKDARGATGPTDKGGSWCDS

Binder | fold increase in binding at 15 μmol/L free Ca2+ compared with zero free Ca2+ [1] | binding at 15 μmol/L free Ca2+ relative to zero free Ca2+ [2]
his6β-SNAP (β soluble NSF attachment protein) (natural protein, UniProt P81126 1-298, looked up) MDNAGKEREAVQLMAEAEKRVKASHSFLRGLFGGNTRIEEACEMYTRAANMFKMAKNWSAAGNAFCQAAKLHMQLQSKHDSATSFVDAGNAYKKADPQEAINCLNAAIDIYTDMGRFTIAAKHHITIAEIYETELVDIEKAIAHYEQSADYYKGEESNSSANKCLLKVAAYAAQLEQYQKAIEIFEQIGANTMDNPLLKYSAKDYFFKAALCHFIVDELNAKLALEKYEEMFPAFTDSRECKLLKKLLEAHEEQNSEAYTEAVKEFDSISRLDQWLTTMLLRIKKSIQGDGEGDGDLK | ~7 fold | –
his6D142A NSF (enzyme, UniProt P18708 1-744, looked up) MAGRSMQAARCPTDELSLSNCAVVSEKDYQSGQHVIVRTSPNHKYIFTLRTHPSVVPGSVAFSLPQRKWAGLSIGQEIEVALYSFDKAKQCIGTMTIEIDFLQKKNIDSNPYDTDKMAAEFIQQFNNQAFSVGQQLVFSFNAKLFGLLVKDIEAMDPSILKGEPASGKRQKIEVGLVVGNSQVAFEKAENSSLNLIGKAKTKENRQSIINPDWNFEKMGIGGLDKEFSDIFRRAFASRVFPPEIVEQMGCKHVKGILLYGPPGCGKTLLARQIGKMLNAREPKVVNGPEILNKYVGESEANIRKLFADAEEEQRRLGANSGLHIIIFDEIDAICKQRGSMAGSTGVHDTVVNQLLSKIDGVEQLNNILVIGMTNRPDLIDEALLRPGRLEVKMEIGLPDEKGRLQILHIHTARMRGHQLLSADVDIKELAVETKNFSGAELEGLVRAAQSTAMNRHIKASTKVEVDMEKAESLQVTRGDFLASLENDIKPAFGTNQEDYASYIMNGIIKWGDPVTRVLDDGELLVQQTKNSDRTPLVSVLLEGPPHSGKTALAAKIAEESNFPFIKICSPDKMIGFSETAKCQAMKKIFDDAYKSQLSCVVVDDIERLLDYVPIGPRFSNLVLQALLVLLKKAPPQGRKLLIIGTTSRKDVLQEMEMLNAFSTTIHVPNIATGEQLLEALELLGNFKDKERTTIAQQVKGKKVWIGIKKLLMLIEMSLQMDPEYRVRKFLALLREEGASPLDFD | – | 85%
